Test results from US7560527.

Biological target: natural cellular receptor for adenovirus on 293 human cells (human)
Test: cell-based or functional assay

native Ad5 fiber carried by the recombinant AdLacZ virus (from UniProt P11818 1-581)
degree of inhibition of the infection of 293-cells with AdLacZ by recombinant Ad5 knob at 100 µg/ml: 95%
